{
  "source": "patent US20220332804A1",
  "about": "(CSL INNOVATION, published 2022)",
  "binders": {"B1": {"name": "RF16-242 (antibody, human IgG4 S228P, lambda, V domains shown)", "VH": "EVQLLQSGAEVKKPGESLKISCKGSGYSFTSYWIGWVRQMPGKGLEWMGIIYPGDSDTRYSPSFQGQVTISADKSISTAYLQWSSLKASDTAMYYCARRGHYGDYFDYWGQGTLVTVSS", "VL": "SYELTQPPSVSVSPGQTARITCSGDALPKKYAYWYHQKSGQAPVLVIYEDRRRPSEIPERFSGSSSGTMATLTITGAQVEDEGVYFCYSRDRAGNQRVFGGGTQLTVLG", "notes": "pH-dependent anti-C2 antibody from a phage display library"}},
  "assay_in_all_cases": "SPR, antibody captured, C2 as analyte;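 further: biacore at 37 °C, anti-C2 mAbs held by immobilised goat anti-human IgG, C2 alanine or serine mutants injected, double-referenced sensorgrams fitted to a 1:1 kinetic or steady-state model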",
  "key": {"[1]": {"target": "T1, human C2 E324A (human, UniProt P06681 21-752)", "T1 sequence": "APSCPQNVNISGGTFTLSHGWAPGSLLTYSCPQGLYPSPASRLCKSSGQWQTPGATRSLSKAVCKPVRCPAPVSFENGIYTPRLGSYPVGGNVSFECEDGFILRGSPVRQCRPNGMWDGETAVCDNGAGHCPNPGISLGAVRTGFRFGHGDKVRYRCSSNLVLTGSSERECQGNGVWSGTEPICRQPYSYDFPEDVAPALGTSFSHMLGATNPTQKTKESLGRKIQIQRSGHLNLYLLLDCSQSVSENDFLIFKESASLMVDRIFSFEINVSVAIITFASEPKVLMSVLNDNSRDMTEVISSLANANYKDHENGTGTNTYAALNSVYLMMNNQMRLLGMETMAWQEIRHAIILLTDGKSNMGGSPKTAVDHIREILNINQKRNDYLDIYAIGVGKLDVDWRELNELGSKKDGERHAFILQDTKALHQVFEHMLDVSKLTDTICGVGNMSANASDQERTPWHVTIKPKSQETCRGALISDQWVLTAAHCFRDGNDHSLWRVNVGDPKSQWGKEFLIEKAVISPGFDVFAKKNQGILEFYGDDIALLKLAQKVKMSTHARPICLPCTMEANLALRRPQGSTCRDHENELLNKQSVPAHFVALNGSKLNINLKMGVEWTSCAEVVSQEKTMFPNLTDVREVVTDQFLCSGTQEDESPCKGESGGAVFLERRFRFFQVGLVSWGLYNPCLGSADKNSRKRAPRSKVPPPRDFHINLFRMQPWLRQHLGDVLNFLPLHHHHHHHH"}, "[2]": {"target": "T2, human C2 N380A (human, UniProt P06681 21-752)", "T2 sequence": "T1 sequence with A304E, N360A"}, "[3]": {"target": "T3, human C2 L453A (human, UniProt P06681 21-752)", "T3 sequence": "T1 sequence with A304E, L433A"}, "[4]": {"target": "T4, human C2 R519A (human, UniProt P06681 21-752)", "T4 sequence": "T1 sequence with A304E, R499A"}},
  "note": "Numbering of substitutions follows the chain as printed.",
  "data": [
    {"binder": "B1", "values": [
      {"measurement": "Kd", "setting": "[1]", "result": 10.7, "unit": "nM"},
      {"measurement": "Kd", "setting": "[2]", "result": 10.2, "unit": "nM"},
      {"measurement": "Kd", "setting": "[3]", "result": 6.8, "unit": "nM"},
      {"measurement": "Kd", "setting": "[4]", "result": 7.6, "unit": "nM"}
    ]}
  ]
}
